Source: publication PMC8136771, “The human tRNA-guanine transglycosylase displays promiscuous nucleobase preference but strict tRNA specificity”

Target: His-hQTRT1 (catalytic subunit of human TGT);StrepII-hQTRT2 (noncatalytic subunit) (human;human, UniProt Q9BXR0;Q9H974 1-403;1-415, |)
Test: denaturing EMSA of covalent intermediate; 9-deazaguanine; RBT buffer: 50 mM Tris-HCl pH 7.5, 20 mM NaCl, 5 mM MgCl2, 2 mM DTT, 37 C, 1-1.5 h, with 9-deazaguanine (25-50 uM); capture-release with poly(U) and ArgSL competitors, urea and guanidine washes
Conditions: protein: recombinant;recombinant; tags: N-terminal His;N-terminal StrepII-SUMO; copies: 1;1; hairpin

His-hQTRT1 (catalytic subunit of human TGT);StrepII-hQTRT2 (noncatalytic subunit), sequence (Q9BXR0 whole entry, chain 1 of 2): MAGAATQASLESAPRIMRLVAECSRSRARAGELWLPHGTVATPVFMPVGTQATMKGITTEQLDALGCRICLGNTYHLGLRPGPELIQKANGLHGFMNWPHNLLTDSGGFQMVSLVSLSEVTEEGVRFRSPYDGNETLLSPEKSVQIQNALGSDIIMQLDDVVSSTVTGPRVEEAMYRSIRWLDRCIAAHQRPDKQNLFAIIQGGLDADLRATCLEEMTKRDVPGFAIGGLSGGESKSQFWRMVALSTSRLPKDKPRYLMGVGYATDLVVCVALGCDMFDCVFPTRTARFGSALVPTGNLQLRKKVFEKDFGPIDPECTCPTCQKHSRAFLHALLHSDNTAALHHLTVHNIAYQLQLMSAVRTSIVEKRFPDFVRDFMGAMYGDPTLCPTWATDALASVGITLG
His-hQTRT1 (catalytic subunit of human TGT);StrepII-hQTRT2 (noncatalytic subunit), sequence (Q9H974 whole entry, chain 2 of 2): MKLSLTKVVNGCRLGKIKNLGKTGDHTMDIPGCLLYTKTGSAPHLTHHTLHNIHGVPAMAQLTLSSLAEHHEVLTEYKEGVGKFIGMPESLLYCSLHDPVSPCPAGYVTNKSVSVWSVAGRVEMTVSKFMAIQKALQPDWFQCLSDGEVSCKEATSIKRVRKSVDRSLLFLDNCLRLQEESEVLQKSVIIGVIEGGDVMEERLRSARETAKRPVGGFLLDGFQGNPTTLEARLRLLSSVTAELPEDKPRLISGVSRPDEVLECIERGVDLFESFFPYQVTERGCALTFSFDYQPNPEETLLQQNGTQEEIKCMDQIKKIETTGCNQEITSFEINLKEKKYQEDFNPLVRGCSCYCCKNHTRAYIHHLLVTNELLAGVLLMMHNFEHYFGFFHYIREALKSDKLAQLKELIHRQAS

| Binder | binding result |
| --- | --- |
| ACUGGCCUCCUAAGCCAGG (structured_RNA) [Arginyl anticodon stem loop (ArgSL)] | no binding |
| CCCCGCCUGUCACGCGGGA (structured_RNA) [Aspartyl anticodon stem loop (AspSL)] | binds |
